From US20220332827A1 (WUXI BIOLOGICS IRELAND, published 2022)

T1: human PD-L2 on the cell surface (human, UniProt Q9BQ51 20-273)
T1 construct: whole, on cells; also called cell surface human PD-L2
T1 sequence (looked up): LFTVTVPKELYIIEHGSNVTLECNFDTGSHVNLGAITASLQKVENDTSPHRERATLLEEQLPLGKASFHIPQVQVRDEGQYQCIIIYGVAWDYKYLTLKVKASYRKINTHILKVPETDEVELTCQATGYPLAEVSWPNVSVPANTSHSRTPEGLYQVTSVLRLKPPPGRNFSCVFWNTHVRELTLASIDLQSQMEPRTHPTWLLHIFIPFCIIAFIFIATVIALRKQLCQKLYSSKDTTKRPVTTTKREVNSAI


How the values were obtained:
[1] = molecular target: cynomolgus monkey PD-L1 protein (soluble) (cynomolgus monkey) (UniProt G7PSE7); assay: ELISA, scFv; set-up: unit not given here
[2] = molecular target: human PD-L1 protein (soluble, ELISA antigen and SPR analyte) (human) (UniProt Q9NZQ7); assay: ELISA, scFv; set-up: unit not given here
[3] = molecular target: mouse PD-L1 protein (soluble) (mouse) (UniProt Q9EP73); assay: ELISA, scFv; set-up: unit not given here
[4] = molecular target: T2, human PD-L1 on the cell surface (CHO-K1 cells expressing human PD-L1) (human, UniProt Q9NZQ7 19-290); assay: FACS epitope binning: antibody mixed with biotinylated WBP315BMK1 on CHO-K1 cells expressing human PD-L1, Streptavidin-PE
T2 construct: the positions are those of the human PD-L1 alanine scan; also called cell surface human PD-L1; B7-H1
Method: (§1) CHO-K 1 cells expressing human PD-L1on the cell surface were incubated with the mixture of biotinylated benchmark antibodies and testing antibodies (serially diluted in wash buffer) at 4° C. for 1 hour. The cells were washed and the second antibody Streptavidin-PE were added and incubated for 30 min at 4° C. The cells were then washed once and resuspended in 1><PBS/1% BSA, and analyzed by flow cytometery.

[5] = molecular target: T3, mouse PD-L1 on the cell surface (mouse, UniProt Q9EP73 19-290); assay: FACS on cells expressing mouse PD-L1, goat anti-human IgG Fc FITC
T3 construct: whole, on cells; also called cell surface mouse PD-L1
Method: (§2) Cross-reactivity was measured by FACS. […] Testing antibodies were diluted in wash buffer (1><PBS/1% BSA) and incubated with cells at 4° C. for 1 hour. After washing, the secondary antibody goat anti-human IgG Fc FITC (Jackson ImmunoResearch Lab) was added and incubated at 4° C. in the dark for 1 hour. The cells were then washed once and resuspended in 1><PBS/1% BSA, and analyzed by flow cytometry (BD).

[6] = molecular target: T3, mouse PD-L1 on the cell surface; assay: FACS competition: antibody against mouse Fc fusion-mouse PD-1 binding to cells expressing mouse PD-L1
[7] = molecular target: T4, human PD-L1 protein (soluble, ELISA antigen and SPR analyte) (human, UniProt Q9NZQ7 19-238); assay: SPR
T4 construct: biotinylated in the capture ELISA; also called PD-L1 (human)

[8] = molecular target: T2, human PD-L1 on the cell surface (CHO-K1 …); assay: FACS epitope binning: antibody mixed with biotinylated WBP315BMK6 on CHO-K1 cells expressing human PD-L1, Streptavidin-PE
Method: as §1

[9] = molecular target: T5, cynomolgus PD-L1 on the cell surface (cynomolgus, UniProt G7PSE7 19-290); assay: FACS on cells expressing cynomolgus PD-L1, goat anti-human IgG Fc FITC
T5 construct: also called cell surface cynomolgus PD-L1
Method: as §2

[10] = molecular target: T2, human PD-L1 on the cell surface (CHO-K1 …); assay: FACS competition: antibody against mouse Fc fusion-human PD-1 binding to cells expressing human PD-L1
[11] = molecular target: T2, human PD-L1 on the cell surface (CHO-K1 …); assay: FACS on cells expressing human PD-L1, goat anti-human IgG Fc FITC
Method: as §2

[12] = molecular target: T1, human PD-L2 on the cell surface; assay: FACS on PD-L2+ CHO-K1 cells, goat anti-human IgG Fc FITC (cross-family test)
Method: Testing antibodies were diluted in wash buffer (1><PBS/1% BSA) and incubated with cells at 4° C. for 1 hour. After washing, the secondary antibody goat anti-human IgG Fc FITC (Jackson ImmunoResearch Lab) was added and incubated at 4° C. in the dark for 1 hour. The cells were then washed once and resuspended in 1><PBS/1% BSA, and analyzed by flow cytometry (BD).

[13] = molecular target: T4, human PD-L1 protein (soluble, ELISA …); assay: SPR, antibody captured on Protein A, PD-L1 as analyte
Method: (§3) Antibodies were characterized for affinity and binding kinetics to PD-L1by SPR assay using ProteOn XPR36 (Bio-Rad). Protein A protein (Sigma) was immobilized to a GLM sensor chip (Bio-Rad) through amine coupling. Purified antibodies were flowed over the sensor chip and captured by the Protein A. The chip was rotated 90° and washed with running buffer (1 ><PBS/0.05% Tween20, Bio-Rad) until the baseline was stable. Five concentrations of human or cynomolgus monkey PD-L1and running buffer were flowed through the sensor chip at a flow rate of 100 μL/min for an association phase of 240s, followed by 600s dissociation. […] The chip was regenerated with pH 1.5 H₃PO₄ after each run. The association and dissociation curve was fit by 1:1 Langmuir binding model using ProteOn software.

[14] = molecular target: T6, cynomolgus monkey PD-L1 protein (soluble) (cynomolgus monkey, UniProt G7PSE7 19-238); assay: as above
T6 construct: also called cyno PD-L1
Method: as §3

T6 sequence (G7PSE7 entry or part of it limits assumed): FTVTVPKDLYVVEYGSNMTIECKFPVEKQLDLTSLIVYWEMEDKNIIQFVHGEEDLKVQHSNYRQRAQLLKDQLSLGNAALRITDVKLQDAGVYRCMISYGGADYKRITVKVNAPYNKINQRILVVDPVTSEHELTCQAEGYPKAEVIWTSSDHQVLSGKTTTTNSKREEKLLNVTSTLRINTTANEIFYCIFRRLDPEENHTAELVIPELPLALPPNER
T4 sequence (Q9NZQ7 19-238 limits assumed): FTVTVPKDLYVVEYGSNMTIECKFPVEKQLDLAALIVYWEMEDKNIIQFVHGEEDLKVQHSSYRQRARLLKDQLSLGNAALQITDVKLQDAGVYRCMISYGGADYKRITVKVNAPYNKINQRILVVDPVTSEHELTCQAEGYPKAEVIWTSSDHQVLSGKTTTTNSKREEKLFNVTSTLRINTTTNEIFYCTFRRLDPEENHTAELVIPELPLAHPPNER
T2 sequence (Q9NZQ7 19-290 limits assumed): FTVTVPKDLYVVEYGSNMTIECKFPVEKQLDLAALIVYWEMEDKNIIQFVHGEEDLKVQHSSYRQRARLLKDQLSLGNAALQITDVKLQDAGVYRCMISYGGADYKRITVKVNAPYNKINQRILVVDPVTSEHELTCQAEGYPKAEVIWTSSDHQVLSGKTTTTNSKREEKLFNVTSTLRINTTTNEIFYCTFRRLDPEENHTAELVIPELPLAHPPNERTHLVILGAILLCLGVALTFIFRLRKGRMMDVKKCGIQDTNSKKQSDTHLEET
T3 sequence (Q9EP73 19-290): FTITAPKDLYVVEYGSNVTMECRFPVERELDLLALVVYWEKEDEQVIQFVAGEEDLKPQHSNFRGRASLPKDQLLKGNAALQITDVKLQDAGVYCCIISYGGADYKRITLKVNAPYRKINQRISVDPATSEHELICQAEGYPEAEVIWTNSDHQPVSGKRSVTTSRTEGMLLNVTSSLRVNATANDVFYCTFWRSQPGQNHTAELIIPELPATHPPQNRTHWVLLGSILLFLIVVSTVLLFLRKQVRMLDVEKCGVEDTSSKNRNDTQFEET
T5 sequence (G7PSE7 entry or part of it limits assumed): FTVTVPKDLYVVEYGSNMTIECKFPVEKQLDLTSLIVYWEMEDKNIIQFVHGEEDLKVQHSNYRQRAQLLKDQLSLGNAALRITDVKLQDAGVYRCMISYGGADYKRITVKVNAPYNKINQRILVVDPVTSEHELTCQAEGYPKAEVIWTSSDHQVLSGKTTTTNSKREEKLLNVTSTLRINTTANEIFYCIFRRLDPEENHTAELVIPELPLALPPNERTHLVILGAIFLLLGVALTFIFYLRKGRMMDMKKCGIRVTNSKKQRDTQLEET
cynomolgus monkey PD-L1 protein (soluble) (cynomolgus monkey), sequence (G7PSE7 entry or part of it limits assumed): as the sequence (Q9NZQ7 19-238 limits assumed) above, with A33T, A34S, S62N, R68Q, Q82R, F173L, T185A, T192I, H215L counted along it
human PD-L1 protein (soluble, ELISA antigen and SPR analyte) (human), sequence (Q9NZQ7 19-238 limits assumed): as the sequence (Q9NZQ7 19-238 limits assumed) above
mouse PD-L1 protein (soluble) (mouse), sequence (Q9EP73 19-238 limits assumed): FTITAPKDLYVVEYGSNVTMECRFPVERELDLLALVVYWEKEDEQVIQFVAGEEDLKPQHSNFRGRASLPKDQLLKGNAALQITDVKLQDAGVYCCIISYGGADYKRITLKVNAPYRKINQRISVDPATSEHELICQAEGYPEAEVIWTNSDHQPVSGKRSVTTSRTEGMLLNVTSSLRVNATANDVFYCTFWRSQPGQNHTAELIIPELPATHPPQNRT

Bmax [1]	Bmax [2]	Bmax [3]	IC50 (read off the curve) [4] [nM]	EC50 (read off the curve) [5] [nM]	IC50 (read off the curve) [6] [nM]	koff [7] [s⁻¹]	IC50 (read off the curve) [8] [nM]	EC50 (read off the curve) [9] [nM]	IC50 (read off the curve) [10] [nM]	EC50 (read off the curve) [11] [nM]	Kd [13] [nM]	koff [13] [s⁻¹]	kon [13] [M⁻¹ s⁻¹]	Kd [14] [nM]	koff [14] [s⁻¹]	kon [14] [M⁻¹ s⁻¹]	Binder	binding result [12]
2.4	3.22	3.46	–	–	–	–	–	–	–	–	–	–	–	–	–	–	W3152-r11.135.5-zAb17-m6 (scFv) (scFv, part only; not given: linker, domain order, tag, V domains shown, not shown: another chain or arm of the molecule; small tags and cut ends) VH: QVQLQESGPGLVKPSETLSLTCTVSGFSLTENSVSWIRQPPGKGLEWIGAVWSSGSTDYNSALKSRVTISRDTSKNQFSLKLSSVTAADTAVYYCTRSTYSNDFYYYFDYWGQGTMVTVSS VL: SYELTQPPSVSVSPGQTASITCSGSELPKRYAYWYQQKPGQSIVRVIYKDSERPSGISERFSGSSSGNTATLTISGTQAMDEADYYCSSTYGDRKLPIFGGGTKLTVL	–
–	–	–	~0.6	~2	~2	0.00103	~2	~1	~0.1	~0.2	0.514	0.00145	2.81e+06	0.403	0.00101	2.52e+06	W3152-r11.135.5-zAb17-m6-uIgG4L (antibody, V domains shown, also called W3152-r11.135.5-zAb17-m6-IgG4L) VH: QVQLQESGPGLVKPSETLSLTCTVSGFSLTENSVSWIRQPPGKGLEWIGAVWSSGSTDYNSALKSRVTISRDTSKNQFSLKLSSVTAADTAVYYCTRSTYSNDFYYYFDYWGQGTMVTVSS VL: SYELTQPPSVSVSPGQTASITCSGSELPKRYAYWYQQKPGQSIVRVIYKDSERPSGISERFSGSSSGNTATLTISGTQAMDEADYYCSSTYGDRKLPIFGGGTKLTVLG	no binding (tested: concentration not shown)
